Experiments:
[1] = molecular target: 32P-labeled synthetic peptide LRRASVA (Kemptide Val^6, Ala^7) (Artificial Sequence)
[2] = molecular target: PP2Ac of COS-1 cells (endogenous PP2A catalytic subunit / PP2A activity); assay: 12CA5 immunoprecipitation from transfected COS-1 cells, PP2A activity in the precipitate
[3] = molecular target: PP2Ac of COS-1 cells (endogenous PP2A catalytic subunit / PP2A activity); assay: 12CA5 immunoprecipitation from transfected COS-1 cells, PP2A activity on 32P-LRRASVA

| Substance | PP2A activity with 32P-labeled synthetic peptide (LRRASVA) as substrate, with and without 10 nM okadaic acid [1] | fold PP2A activity against eRF1 immunoprecipitates [2] | % immunoprecipitated (of PP2A activity) [3] | PP2A activity in immunoprecipitates (mU) [3] |
| --- | --- | --- | --- | --- |
| PP2Ac of COS-1 cells (endogenous PP2A catalytic subunit / PP2A activity) (enzyme) | 2.4 U/mg |  |  |  |
| HA-tagged human PR65α expressed in COS-1 cells (from UniProt P30153) |  | 10 fold | 3.7% | 17 mU |

Source: patent US6159704
